From patent US20140274782A1, “AFFINITY REAGENTS AND METHODS FOR DETECTION, PURIFICATION, AND PROTEOMIC ANALYSIS OF METHYLATED PROTEINS” (The Board of Trustees of the Leland Stanford Junior …, priority 2013, published 2014)

T1: G9a and GLP (Homo sapiens, UniProt Q96KQ7+Q9H9B1)
T1 sequence (Q96KQ7 2-1210 limits assumed): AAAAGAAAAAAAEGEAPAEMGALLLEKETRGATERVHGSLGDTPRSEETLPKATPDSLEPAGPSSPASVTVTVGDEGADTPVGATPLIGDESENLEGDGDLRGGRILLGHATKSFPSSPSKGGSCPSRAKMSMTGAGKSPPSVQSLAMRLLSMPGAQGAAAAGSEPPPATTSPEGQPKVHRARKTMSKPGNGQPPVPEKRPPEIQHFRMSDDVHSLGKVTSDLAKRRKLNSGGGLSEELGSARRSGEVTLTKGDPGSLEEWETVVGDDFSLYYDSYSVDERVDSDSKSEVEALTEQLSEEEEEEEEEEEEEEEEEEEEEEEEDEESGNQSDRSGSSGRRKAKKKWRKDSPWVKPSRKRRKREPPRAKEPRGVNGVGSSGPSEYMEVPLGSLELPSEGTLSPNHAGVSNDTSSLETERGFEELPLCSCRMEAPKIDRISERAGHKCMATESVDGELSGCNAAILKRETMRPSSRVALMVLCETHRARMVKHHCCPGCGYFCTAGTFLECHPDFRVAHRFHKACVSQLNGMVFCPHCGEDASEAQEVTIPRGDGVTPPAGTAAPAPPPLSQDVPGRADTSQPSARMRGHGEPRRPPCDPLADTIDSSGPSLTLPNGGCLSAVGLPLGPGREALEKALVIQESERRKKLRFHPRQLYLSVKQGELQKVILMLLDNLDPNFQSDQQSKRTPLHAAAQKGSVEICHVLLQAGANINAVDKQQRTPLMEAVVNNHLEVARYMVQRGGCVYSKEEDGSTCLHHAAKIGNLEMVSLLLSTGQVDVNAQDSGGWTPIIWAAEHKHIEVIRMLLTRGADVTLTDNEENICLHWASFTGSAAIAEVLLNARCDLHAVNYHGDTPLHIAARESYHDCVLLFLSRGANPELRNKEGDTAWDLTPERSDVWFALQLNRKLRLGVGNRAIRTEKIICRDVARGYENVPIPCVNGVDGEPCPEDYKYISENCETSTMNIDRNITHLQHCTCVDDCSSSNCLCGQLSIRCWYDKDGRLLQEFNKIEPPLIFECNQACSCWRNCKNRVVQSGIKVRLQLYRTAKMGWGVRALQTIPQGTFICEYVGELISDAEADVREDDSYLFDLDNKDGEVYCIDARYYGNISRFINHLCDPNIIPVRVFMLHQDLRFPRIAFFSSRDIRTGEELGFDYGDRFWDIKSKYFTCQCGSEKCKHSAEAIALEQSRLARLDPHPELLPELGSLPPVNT
T1 sequence (Q9H9B1 2-1298 limits assumed): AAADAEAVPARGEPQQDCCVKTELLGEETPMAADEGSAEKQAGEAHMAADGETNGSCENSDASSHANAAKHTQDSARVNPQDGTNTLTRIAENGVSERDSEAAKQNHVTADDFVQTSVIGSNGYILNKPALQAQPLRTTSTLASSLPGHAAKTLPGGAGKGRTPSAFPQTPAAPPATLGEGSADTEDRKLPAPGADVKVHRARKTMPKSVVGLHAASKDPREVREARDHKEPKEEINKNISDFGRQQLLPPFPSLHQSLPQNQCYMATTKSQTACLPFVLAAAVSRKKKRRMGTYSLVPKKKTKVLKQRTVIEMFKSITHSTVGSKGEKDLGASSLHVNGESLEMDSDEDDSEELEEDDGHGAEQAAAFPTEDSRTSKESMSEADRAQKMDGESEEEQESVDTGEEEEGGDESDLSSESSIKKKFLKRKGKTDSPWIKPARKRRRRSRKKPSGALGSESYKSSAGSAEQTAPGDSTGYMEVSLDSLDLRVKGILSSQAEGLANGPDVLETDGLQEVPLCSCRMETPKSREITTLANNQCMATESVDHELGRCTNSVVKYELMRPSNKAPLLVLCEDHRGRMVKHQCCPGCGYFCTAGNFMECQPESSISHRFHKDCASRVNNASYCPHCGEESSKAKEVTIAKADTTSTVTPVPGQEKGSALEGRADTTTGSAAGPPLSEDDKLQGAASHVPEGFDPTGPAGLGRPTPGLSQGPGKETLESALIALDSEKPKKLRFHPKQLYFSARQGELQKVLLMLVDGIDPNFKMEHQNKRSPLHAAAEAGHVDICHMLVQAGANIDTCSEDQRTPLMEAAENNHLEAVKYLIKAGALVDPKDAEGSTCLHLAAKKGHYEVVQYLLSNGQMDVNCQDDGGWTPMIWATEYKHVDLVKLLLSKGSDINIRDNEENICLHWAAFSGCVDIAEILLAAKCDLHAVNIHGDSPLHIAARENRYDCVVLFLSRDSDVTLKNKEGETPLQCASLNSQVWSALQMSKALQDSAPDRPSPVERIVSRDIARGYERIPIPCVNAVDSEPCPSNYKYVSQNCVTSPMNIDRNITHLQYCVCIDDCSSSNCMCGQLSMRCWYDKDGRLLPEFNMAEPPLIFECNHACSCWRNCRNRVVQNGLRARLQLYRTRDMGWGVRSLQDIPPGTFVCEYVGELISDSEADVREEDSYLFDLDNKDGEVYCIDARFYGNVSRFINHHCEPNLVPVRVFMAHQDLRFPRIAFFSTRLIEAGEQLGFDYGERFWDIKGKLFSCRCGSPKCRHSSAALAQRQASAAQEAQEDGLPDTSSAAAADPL


Key:
3×MBT domain of L3MBTL1 = test: Triple SILAC pull-down, 3xMBT/3xMBTD355N ratio (cytoplasmic, nuclear and chromatin fractions of 293T cells); assay type: binding, human; conditions: for 3xMBT/D355N UNC Heavy: experiment with UNC0638 in heavy SILAC media; for 3xMBT/D355N UNC Light: experiment with UNC0638 in light SILAC media;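 as to all read-outs here: proteins quantified with MaxQuant, requiring at least two unique peptides and quantification in both label directions, normalized to the mean of proteins from a digested loading control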
G9a and GLP = molecular target: T1, G9a and GLP; test: Triple SILAC pull-down after UNC0638 treatment of 293T cells, DMSO/UNC0638 ratio of protein captured by 3×MBT; assay type: cell-based; set-up: cells were treated for 24 hours with UNC0638 at 2.5 μM or DMSO vehicle control; endogenous in cells; host or cells: HEK 293T; conditions: for Relative to UNC0638 UNC Heavy: UNC0638 in heavy SILAC media; for Relative to UNC0638 UNC Light: UNC0638 in light SILAC media; for Relative to UNC0638 Average: average of UNC Light and UNC Heavy experiments;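 as to all read-outs here: mass spectrometry (Q-Exactive) SILAC quantitation, DMSO/UNC0638 ratio computed after subtracting 3×MBTD355N mutant pull-down background, only proteins with at least twofold 3×MBT over mutant signal considered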
[1] = SILAC ratio, pull-down 3xMBT vs 3xMBTD355N
[2] = SILAC ratio DMSO/UNC0638 of protein pulled down with 3xMBT
[3] = SILAC ratio 3xMBT vs 3xMBTD355N pull-down, 293T cells, all values in log base 2
[4] = SILAC ratio DMSO relative to UNC0638, pull-down with 3xMBT, all values in log base 2

Relative to UNC0638 UNC Heavy (G9a and GLP; [2]) [log base 2]	Relative to UNC0638 UNC Light (G9a and GLP; [2]) [log base 2]	Relative to UNC0638 Average (G9a and GLP) [log base 2]	Candidate G9a/GLP target (G9a and GLP; reduced association with 3xMBT after UNC0638 treatment)	Relative to UNC0638 UNC Heavy (G9a and GLP; [4]) [log base 2]	Relative to UNC0638 UNC Light (G9a and GLP; [4]) [log base 2]	Relative to UNC0638 Average (G9a and GLP; all values in log base 2) [log base 2]	Molecule	3xMBT/D355N UNC Heavy (3×MBT domain of L3MBTL1; [1]) [log base 2]	3xMBT/D355N UNC Light (3×MBT domain of L3MBTL1; [1]) [log base 2]	3xMBT/D355N UNC Heavy (3×MBT domain of L3MBTL1; [3]) [log base 2]	3xMBT/D355N UNC Light (3×MBT domain of L3MBTL1; [3]) [log base 2]
0.55	0.36	0.46	✓				CYFIP1 (protein, UniProt Q7L576 1-1253, looked up) Cytoplasmic FMR1-interacting …: MAAQVTLEDALSNVDLLEELPLPDQQPCIEPPPSSLLYQPNFNTNFEDRNAFVTGIARYIEQATVHSSMNEMLEEGQEYAVMLYTWRSCSRAIPQVKCNEQPNRVEIYEKTVEVLEPEVTKLMNFMYFQRNAIERFCGEVRRLCHAERRKDFVSEAYLITLGKFINMFAVLDELKNMKCSVKNDHSAYKRAAQFLRKMADPQSIQESQNLSMFLANHNKITQSLQQQLEVISGYEELLADIVNLCVDYYENRMYLTPSEKHMLLKVMGFGLYLMDGSVSNIYKLDAKKRINLSKIDKYFKQLQVVPLFGDMQIELARYIKTSAHYEENKSRWTCTSSGSSPQYNICEQMIQIREDHMRFISELARYSNSEVVTGSGRQEAQKTDAEYRKLFDLALQGLQLLSQWSAHVMEVYSWKLVHPTDKYSNKDCPDSAEEYERATRYNYTSEEKFALVEVIAMIKGLQVLMGRMESVFNHAIRHTVYAALQDFSQVTLREPLRQAIKKKKNVIQSVLQAIRKTVCDWETGHEPFNDPALRGEKDPKSGFDIKVPRRAVGPSSTQLYMVRTMLESLIADKSGSKKTLRSSLEGPTILDIEKFHRESFFYTHLINFSETLQQCCDLSQLWFREFFLELTMGRRIQFPIEMSMPWILTDHILETKEASMMEYVLYSLDLYNDSAHYALTRFNKQFLYDEIEAEVNLCFDQFVYKLADQIFAYYKVMAGSLLLDKRLRSECKNQGATIHLPPSNRYETLLKQRHVQLLGRSIDLNRLITQRVSAAMYKSLELAIGRFESEDLTSIVELDGLLEINRMTHKLLSRYLTLDGFDAMFREANHNVSAPYGRITLHVFWELNYDFLPNYCYNGSTNRFVRTVLPFSQEFQRDKQPNAQPQYLHGSKALNLAYSSIYGSYRNFVGPPHFQVICRLLGYQGIAVVMEELLKVVKSLLQGTILQYVKTLMEVMPKICRLPRHEYGSPGILEFFHHQLKDIVEYAELKTVCFQNLREVGNAILFCLLIEQSLSLEEVCDLLHAAPFQNILPRVHVKEGERLDAKMKRLESKYAPLHLVPLIERLGTPQQIAIAREGDLLTKERLCCGLSMFEVILTRIRSFLDDPIWRGPLPSNGVMHVDECVEFHRLWSAMQFVYCIPVGTHEFTVEQCFGDGLHWAGCMIIVLLGQQRRFAVLDFCYHLLKVQKHDGKDEIIKNVPLKKMVERIRKFQILNDEIITILDKYLKSGDGEGTPVEHVRCFQPPIHQSLASS	1.93	1.58		
				−0.09	−0.02	−0.06	ZRANB2 (protein, UniProt O95218 1-330, looked up) Zinc finger Ran-binding …: MSTKNFRVSDGDWICPDKKCGNVNFARRTSCNRCGREKTTEAKMMKAGGTEIGKTLAEKSRGLFSANDWQCKTCSNVNWARRSECNMCNTPKYAKLEERTGYGGGFNERENVEYIEREESDGEYDEFGRKKKKYRGKAVGPASILKEVEDKESEGEEEDEDEDLSKYKLDEDEDEDDADLSKYNLDASEEEDSNKKKSNRRSRSKSRSSHSRSSSRSSSPSSSRSRSRSRSRSSSSSQSRSRSSSRERSRSRGSKSRSSSRSHRGSSSPRKRSYSSSSSSPERNRKRSRSRSSSSGDRKKRRTRSRSPERRHRSSSGSSHSGSRSSSKKK			0.71	2.59
				−0.78	0.47	−0.15	CSTF3 (protein, UniProt Q12996 2-717, looked up) Cleavage stimulation factor …: SGDGATEQAAEYVPEKVKKAEKKLEENPYDLDAWSILIREAQNQPIDKARKTYERLVAQFPSSGRFWKLYIEAEIKAKNYDKVEKLFQRCLMKVLHIDLWKCYLSYVRETKGKLPSYKEKMAQAYDFALDKIGMEIMSYQIWVDYINFLKGVEAVGSYAENQRITAVRRVYQRGCVNPMINIEQLWRDYNKYEEGINIHLAKKMIEDRSRDYMNARRVAKEYETVMKGLDRNAPSVPPQNTPQEAQQVDMWKKYIQWEKSNPLRTEDQTLITKRVMFAYEQCLLVLGHHPDIWYEAAQYLEQSSKLLAEKGDMNNAKLFSDEAANIYERAISTLLKKNMLLYFAYADYEESRMKYEKVHSIYNRLLAIEDIDPTLVYIQYMKFARRAEGIKSGRMIFKKAREDTRTRHHVYVTAALMEYYCSKDKSVAFKIFELGLKKYGDIPEYVLAYIDYLSHLNEDNNTRVLFERVLTSGSLPPEKSGEIWARFLAFESNIGDLASILKVEKRRFTAFKEEYEGKETALLVDRYKFMDLYPCSASELKALGYKDVSRAKLAAIIPDPVVAPSIVPVLKDEVDRKPEYPKPDTQQMIPFQPRHLAPPGLHPVPGGVFPVPPAAVVLMKLLPPPICFQGPFVQVDELMEIFRRCKIPNTVEEAVRIITGGAPELAVEGNGPVESNAVLTKAVKRPNEDSDEDEEKGAVVPPVHDIYRARQQKRIR			1.58	1.48
